Data reported in US20160075790A1 (Bristol-Myers Squibb, published 2016).
Values joined by “and” are separate entries in the source; they are usually repeats but may differ in a detail not shown here. Equal entries are not always repeated.

T1: human CD40L, membrane-bound on cells (human, UniProt P29965 1-261)
T1 sequence: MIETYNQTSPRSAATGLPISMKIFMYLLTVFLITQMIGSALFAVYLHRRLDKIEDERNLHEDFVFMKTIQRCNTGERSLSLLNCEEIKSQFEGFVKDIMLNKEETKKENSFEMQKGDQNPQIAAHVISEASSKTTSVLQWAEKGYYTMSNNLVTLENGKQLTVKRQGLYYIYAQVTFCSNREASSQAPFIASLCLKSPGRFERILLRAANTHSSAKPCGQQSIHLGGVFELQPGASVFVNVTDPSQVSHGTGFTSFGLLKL

T2: human isoleucine zipper-CD40L (IZ-hCD40L) (human, UniProt P29965 113-261)
T2 sequence: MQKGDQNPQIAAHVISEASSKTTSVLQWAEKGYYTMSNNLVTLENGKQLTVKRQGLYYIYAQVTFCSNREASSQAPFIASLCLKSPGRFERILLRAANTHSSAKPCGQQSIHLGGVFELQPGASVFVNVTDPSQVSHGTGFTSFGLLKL


How the values were obtained:
[1] = molecular target: T1, human CD40L, membrane-bound on cells; assay: cell-based or functional assay
[2] = molecular target: T2, human isoleucine zipper-CD40L …; assay: cell-based or functional assay

Binder	CHO-hCD40L-driven DC Activation IL-12 EC50 [1] [nM]	hIZCD40L-driven Human B Cell Proliferation EC50 [2]	CHO-hCD40L-driven Human B Cell Proliferation EC50 [1]	T-B cell MLR EC50 [1] [nM]
BMS2h-572-635 (other) VH: EVQLLESGGGLVQPGGSLRLSCAASGFTFNWELMGWARQAPGKGLEWVSGIEGPGDVTYYADSVKGRFTISRDNSKNTLYLQMNSLRAEDTAVYYCVKVGKDSKSDYRGQGTLVTVSS	52	29 nM	–	–
BMS2h-572-15 (other) VH: EVRLLESGGGLVQPGGSLRLSCAASGFNFNWQLMGWIRQAPGKGLEWVSGIEGPGDVTYYADSVKGRFTISRDNSKNTLYLQMNSLRAEDTAVYYCAKVGKESNSDYRGQGTLVTVSS	876	168 nM	> 7000 nM	–
BMS2h-572-634 (other) VH: EVQLLESGGGLVQPGGSLRLSCAASGFTFNWELMGWARQAPGKGLEWVSGIEGPGDVTYYADSVKGRFTISRDNSKNTLYLQMNSLRAEDTAVYYCVKVGKDSRSDYRGQGTLVTVSS	77	31 nM	–	–
BMS2h-572-9 (other) VH: EVQLLESGGGLVQPGGSLRLSCAASGFTFNWQLMGWVRQAPGKGLEWVSGIEGPGDVTYYADSVKGRFTISRDNSKNTLYLQMNSLRAEDTAVYYCAKVGKESNSDYRGQGTLVTVSS	> 2000	324 nM and 243 nM	–	–
BMS2h-437 (other) VL: DIQMTQSPSSLSASVGDRVTITCRASTPIGTMLDWYQQKPGKAPKLLIGHSSWLQSGVPSRFSGSGSGTDFTLTISSLQPEDFATYYCGQHVRPPATFGQGTKVEIKR	–	5700 nM	–	–
BMS2h-116-1312 (other) VL: DIQMTQSPSSLSASVGDRVTITCRASQPIGPDLLWYQQKPGKAPKLLIYQTSILRSGVPSRFSGSGSETDFTLTISNLQPEDLATYYCQQYWAFPVTFGKGTKVVIKR	112	23 nM	530 nM	234
BMS2h-116-1314 (other) VL: DIQMTQSPSSLSASVGDRVTITCRASQPIGPDLLWYRQKPGKAPKLLIYQTSILRSGVPSRFSGSGSETDFTLTISNLQPEDFATYYCQQYWAFPVTFGQGTKVVIKR	664	41 nM	–	1690
BMS2h-719-17 (other) VH: EVQLLESGGGLVQPGGSLRLSCAASGFTFKRYEMSWVRQAPGKGLEWVSSISSDGSFTYYADSVKGRFTISRDNSKNTLYLQMNSLRAEDTAVYYCADPFTEIDYWGQGTQVTVSS	113	132 nM	236 nM and 268 nM	–
BMS2h-719-226 (other) VH: EVQLLESGGGLVQPGGSLRLSCAASGFTFNKYEMMWARQAPGKGLEWVSSISSDGSFTYYADSVKGRFTISRDNSRNTLYLQMNSLRAEDTAVYYCAEPFTEFDYWGHGTLVTVSS	812	164 nM and 247 nM	–	–
BMS2h-719-19 (other) VH: EVQLLESGGGWVQPGGSLRLSCAASGFTFKRYEMMWVRQAPGKGLEWVSSISSDGSFTYYADSVKGRFTISRDNSKNTLYLQMNSLRAEDTAVYYCADPFTEFDYWGQGTLVTVSS	184	138 nM	–	–
BMS2h-492 (other) VL: DIQMTQSPSSLSASVGDRVTITCRASQAIELNLEWYQQKPGKAPKLLIYDASMLQSGVPSRFSGSGSGTDFTLTISSLQPEDFATYYCQQYDVYPPTFGQGTKVEIKR	–	> 7000 nM	–	–
BMS2h-492-6 (other) VL: DIQMTQSPSSLSASVGDRVTITCRASQAIESNLEWYQQKPGKAPKLLIYDASMLQSGVPSRFSGSGSGTDFTLTISSLQPEDFATYYCQQYDVYPPTFGQGTKVEIKR	–	6300 nM	–	–
BMS2h-492-5 (other) VL: DIQMNQSPSSLSASVGDRVSITCRASQAIEHNLEWYQQKPGKAPKLLIYDASMLQSGVPSRFSGSGSGTDFTLTISSLQPEDFATYYCQQYDAYPPTFGQGTKVEIKR	–	2300 nM	–	–
BMS2h-494-2 (other) VL: DIQMTQSPSSLSASVGDRVTITCRASQSIEEDLEWYQQKPGKAPRLLIYSSSWLQSGVPSRFSGSGSGTDFTLTISSLQPEDFATYYCQQYFQYPPTFGHGTKVEIKR	–	4800 nM	–	–

Now from value to binder:

CHO-hCD40L-driven DC Activation IL-12 EC50 [1] [nM]	hIZCD40L-driven Human B Cell Proliferation EC50 [2]	CHO-hCD40L-driven Human B Cell Proliferation EC50 [1]	T-B cell MLR EC50 [1] [nM]	Binder
241	117 nM	–	–	BMS2h-572-632 (other) VH: EVQLLESGGGLVQPGGSLRLSCAASGFTFKWQLMGWVRQAPGKGLEWVSGIEGPGDVTYYADSVKGRFTISRDNSKNTLYLQMNSLRAEDTAVYYCVKVGKDSKSDYRGQGTLVTVSS
–	> 7000 nM	–	–	BMS2h-572 (other) VH: EVQLLESGGGLVQPGGSLRLSCAASGFTFNWQLMGWVRQAPGKGLEWVSGIEGPGDVTYYADSVKGRFTISRDNSKNTLYLQMNSLRAEDTAVYYCAKVGKESNFDYRGQGTLVTVSS
882	134 nM	> 7000 nM	–	BMS2h-572-14 (other) VH: EVQLLESGGGLVQPGGSLRLSCAASGFTFNWQLMGWVRQAPGKGLEWVSGIEGPGDVTYYADSVKGRFTISRDNTKNTLYLQMNSLRAEDTAVYYCVKVGKESNSDYRGQGTLVTVSS
–	140 nM	> 7000 nM	–	BMS2h-572-11 (other) VH: EVQLLESGGGLVQPGGSLRLSCAASGFTFNWQLMGWVRQAPGKGLEWVSGIEGPGDVTYYADSVKGRFTISRDNSKNTLYLQMNSLRAEDTAVYYCVKVGKESNSDYRGQGTQVTVSS
–	208 nM	> 7000 nM	> 7000	BMS2h-572-6 (other) VH: EVQLLESGGGLVQPGGSLRLSCAASGFTFNWQLMGWVRQAPGKGLEWVSGIEGPGDVTYYADSVKGRFTISRDNSKNTLYLQMNSLRAEDTAVYYCVKVGKESNSDYRGQGTLVTVSS
–	> 7000 nM	–	–	BMS2h-494-3 (other) VL: DIQMTQSPSSLSASVGDRVTITCRASQSIDEDLEWYQQKPGKAPRLLIYSSSWLQSGVPSRFSGSGSGTDFTLTISSLQPEDFATYFCQQYFQYPPTFGQGTKVEIKR
–	–	–	258	BMS2h-116-1313 (other) VL: DIQMTQSPSSLSASVGDRVTITCRASQPIGPDLLWYQQKPGKAPKLLIYQTSILRSGVPSRFSGSGSETDFTLTISNLQPEDFATYYCQQYWAFPVTFGRGTKVVIKR
196	82 nM	> 7000 nM	–	BMS2h-719-2 (other) VH: EVQLLESGGGLVQPGGSLRLSCAASGFTFKRYEMMWVRQAPGKGLEWVSSISSDGSFTYYADSVKGRFTISRDNSKNTLYLQMNSLRAEDTAVYYCAEPFTEFDYWGHGTLVTVSS
176	253 nM and 198 nM	–	–	BMS2h-719-225 (other) VH: EVQLLESGGGLVQPGGSLRLSCAASGFTFNTYEMQWVRQAPGKGLEWVSSISSDGSFTYYADSVKGRFTISRDNSKNTLYLQMNSLRAEDTAVYYCAEPFTEFDYWGHGTLVTVSS
266	358 nM	–	–	BMS2h-719-12 (other) VH: EVQLLESGGGLVQPGGSLRLSCAASGFTFKRYEMMWVRQAPGKGLEWVSSISSDGSFTYYADSVKGRFTVSRDNSKNTLYLQMNSLRAEDTAVYYCADPFTEFDYWGQGTLVTVSS
79	29 nM	–	–	BMS2h-719-202 (other) VH: EVQLLESGGGLVQPGGSLRLSCAASGFTFKKYEMMWVRQAPGKGLEWVSSISSDGSFTYYADSVKGRFTISRDNSKNTLYLQMNSLRAEDTAVYYCAEPFTEFDYWGHGTLVTVSS
219	50 nM	–	–	BMS2h-719-13 (other) VH: EVQLLESGGGLVQPGGSLRLSCAASGFTFKRYEMMWVRQAPGKGLEWVSSISSDGSFTYYADSVKGRFTISRDNTKNTLYLQMNSLRAEDTAVYYCADPFTELDYWGHGTLVTVSS
–	1900 nM	–	–	BMS2h-492-7 (other) VL: DIQMTQSPSSLSASVGDRVTITCRASQAIEHNLEWYQQKPGKAPKLLIYDASMLQSGVPSRFSGSGSGTDFTLTISSLQPEDFATYYCQQYDAYPPTFGQGTKVEIKR
–	6100 nM	–	–	BMS2h-494 (other) VL: DIQMTQSPSSLSASVGDRVTITCRASQSIDEDLEWYQQKPGKAPRLLIYSSSWLQSGVPSRFSGSGSGTDFTLTISSLQPEDFATYYCQQYFQYPPTFGQGTKVEIKR
